± gives the standard deviation of the averaged measurements.
Experiment: total protein half-life in vivo (active degradation + dilution); higher = more stable protein
[1] = E. coli NCM3722 delta-clpP delta-lon delta-hslV, growth: N-lim chemostat, doubling time 6 h
[2] = E. coli NCM3722 delta-clpP, growth: N-lim chemostat, doubling time 6 h
[3] = E. coli NCM3722 delta-hslV, growth: N-lim chemostat, doubling time 6 h
[4] = E. coli NCM3722 delta-lon, growth: N-lim chemostat, doubling time 6 h
[5] = E. coli NCM3722 delta-smpB, growth: N-lim chemostat, doubling time 6 h
[6] = wild type E. coli NCM3722, growth: C-lim chemostat, doubling time 3 h
[7] = wild type E. coli NCM3722, growth: C-lim chemostat, doubling time 12 h
[8] = wild type E. coli NCM3722, growth: N-lim chemostat, doubling time 6 h
[9] = wild type E. coli NCM3722, growth: N-lim chemostat, doubling time 12 h
[10] = wild type E. coli NCM3722, growth: P-lim chemostat, doubling time 6 h
[11] = wild type E. coli NCM3722, growth: P-lim chemostat, doubling time 12 h
[12] = wild type E. coli NCM3722, growth: C-lim chemostat, doubling time 6 h

Row | Sequence | total protein half-life in vivo [1] [h] | total protein half-life in vivo [2] [h] | total protein half-life in vivo [3] [h] | total protein half-life in vivo [4] [h] | total protein half-life in vivo [5] [h] | total protein half-life in vivo [6] [h] | total protein half-life in vivo [7] [h] | total protein half-life in vivo [8] [h] | total protein half-life in vivo [9] [h] | total protein half-life in vivo [10] [h] | total protein half-life in vivo [11] [h] | total protein half-life in vivo [12] [h]
1 | MNKYQAVIIGFGKAGKTLAVTLAKAGWRVALIEQSNAMYGGTCINIGCIPTKTLVHDAQQHTDFVRAIQRKNEVVNFLRNKNFHNLADMPNIDVIDGQAEFINNHSLRVHRPEGNLEIHGEKIFINTGAQTVVPPIPGITTTPGVYDSTGLLNLKELPGHLGILGGGYIGVEFASMFANFGSKVTILEAASLFLPREDRDIADNIATILRDQGVDIILNAHVERISHHENQVQVHSEHAQLAVDALLIASGRQPATASLHPENAGIAVNERGAIVVDKRLHTTADNIWAMGDVTGGLQFTYISLDDYRIVRDELLGEGKRSTDDRKNVPYSVFMTPPLSRVGMTEEQARESGADIQVVTLPVAAIPRARVMNDTRGVLKAIVDNKTQRMLGASLLCVDSHEMINIVKMVMDAGLPYSILRDQIFTHPSMSESLNDLFSLVK | 5.58 ± 0.12 | 4.727 ± 0.039 | 4.73 ± 0.26 | 5.53 ± 0.24 | 4.9 ± 0.99 | 3.31 ± 0.05 | 10.4 ± 1 | 4.71 ± 0.29 | 8.5 ± 0.62 | 6 ± 0.4 | 12 ± 1.2 | –
2 | MNLDDKSLFLDAMEDVQPLKRATDVHWHPTRNQRAPQRIDTLQLDNFLTTGFLDIIPLSQPLEFRREGLQHGVLDKLRSGKYPQQASLNLLRQPVEECRKMVFSFIQQALADGLRNVLIIHGKGRDDKSHANIVRSYVARWLTEFDDVQAYCTALPHHGGSGACYVALRKTAQAKQENWERHAKRSR | – | 3.15 ± 0.09 | 0.92 ± 0.056 | – | 0.889 | 0.985 | 1.42 | 1.06 ± 0.055 | 1.33 ± 0.064 | 1.28 | 1.8 ± 0.54 | 1.35
3 | MNLEKINELTAQDMAGVNAAILEQLNSDVQLINQLGYYIVSGGGKRIRPMIAVLAARAVGYEGNAHVTIAALIEFIHTATLLHDDVVDESDMRRGKATANAAFGNAASVLVGDFIYTRAFQMMTSLGSLKVLEVMSEAVNVIAEGEVLQLMNVNDPDITEENYMRVIYSKTARLFEAAAQCSGILAGCTPEEEKGLQDYGRYLGTAFQLIDDLLDYNADGEQLGKNVGDDLNEGKPTLPLLHAMHHGTPEQAQMIRTAIEQGNGRHLLEPVLEAMNACGSLEWTRQRAEEEADKAIAALQVLPDTPWREALIGLAHIAVQRDR [P0AD57] | 4.19 ± 0.56 | 4.1 ± 0.06 | 3.69 ± 0.19 | 5.2 ± 0.3 | 4.09 ± 0.18 | 3.02 ± 0.1 | 9.86 ± 0.44 | 3.93 ± 0.17 | 6.372 ± 0.062 | 5.64 ± 0.61 | 11.4 ± 0.24 | 5.42 ± 0.15
4 | MNLKLQLKILSFLQFCLWGSWLTTLGSYMFVTLKFDGASIGAVYSSLGIAAVFMPALLGIVADKWLSAKWVYAICHTIGAITLFMAAQVTTPEAMFLVILINSFAYMPTLGLINTISYYRLQNAGMDIVTDFPPIRIWGTIGFIMAMWVVSLSGFELSHMQLYIGAALSAILVLFTLTLPHIPVAKQQANQSWTTLLGLDAFALFKNKRMAIFFIFSMLLGAELQITNMFGNTFLHSFDKDPMFASSFIVQHASIIMSISQISETLFILTIPFFLSRYGIKNVMMISIVAWILRFALFAYGDPTPFGTVLLVLSMIVYGCAFDFFNISGSVFVEKEVSPAIRASAQGMFLMMTNGFGCILGGIVSGKVVEMYTQNGITDWQTVWLIFAGYSVVLAFAFMAMFKYKHVRVPTGTQTVSH [P0AFF4] | – | – | > 8 | – | – | 1.79 | 10.8 ± 2.5 | – | 4.5 | – | – | 6.63
5 | MNLLTVSTDLISIFLFTTLFLFFARKVAKKVGLVDKPNFRKRHQGLIPLVGGISVYAGICFTFGIVDYYIPHASLYLACAGVLVFIGALDDRFDISVKIRATIQAAVGIVMMVFGKLYLSSLGYIFGSWEMVLGPFGYFLTLFAVWAAINAFNMVDGIDGLLGGLSCVSFAAIGMILWFDGQTSLAIWCFAMIAAILPYIMLNLGILGRRYKVFMGDAGSTLIGFTVIWILLETTQGKTHPISPVTALWIIAIPLMDMVAIMYRRLRKGMSPFSPDRQHIHHLIMRAGFTSRQAFVLITLAAALLASIGVLAEYSHFVPEWVMLVLFLLAFFLYGYCIKRAWKVARFIKRVKRRLRRNRGGSPNLTK [P0AC78] | – | 6.35 | 5.89 ± 0.39 | 5.27 ± 0.83 | 5.8 ± 0.18 | 3.68 ± 0.28 | 11.8 ± 2.3 | 6.03 | 10.4 | 6.33 ± 0.36 | – | 5.75
6 | MNLQRFDDSTLIRIFALHELHRLKEHGLTRGALLDYHSRYKLVFLAHSQPEYRKLGPFVADIHQWQNLDDYYNQYRQRVVVLLSHPANPRDHTNVLMHVQGYFRPHIDSTERQQLAALIDSYRRGEQPLLAPLMRIKHYMALYPDAWLSGQRYFELWPRVINLRHSGVL | 5.09 ± 0.47 | 4.66 ± 0.34 | 4.914 ± 0.015 | 5.47 ± 0.14 | 4.55 ± 0.27 | – | 11.2 | 4.54 ± 0.59 | 7.5 ± 0.48 | 5.11 ± 0.081 | 12 ± 0.13 | 5.12
7 | MNLTLKESLVTRSRVFSPWTAFYFLQSLLINLGLGYPFSLLYTAAFTAILLLLWRTLPRVQKVLVGVSSLVAACYFPFAQAYGAPNFNTLLALHSTNMEESTEILTIFPWYSYLVGLFIFALGVIAIRRKKENEKARWNTFDSLCLVFSVATFFVAPVQNLAWGGVFKLKDTGYPVFRFAKDVIVNNNEVIEEQERMAKLSGMKDTWTVTAVKPKYQTYVVVIGESARRDALGAFGGHWDNTPFASSVNGLIFADYIAASGSTQKSLGLTLNRVVDGKPQFQDNFVTLANRAGFQTWWFSNQGQIGEYDTAIASIAKRADEVYFLKEGNFEADKNTKDEALLDMTAQVLAQEHSQPQLIVLHLMGSHPQACDRTQGKYETFVQSKETSCYLYTMTQTDDLLRKLYDQLRNSGSSFSLVYFSDHGLAFKERGKDVQYLAHDDKYQQNFQVPFMVISSDDKAHRVIKARRSANDFLGFFSQWTGIKAKEINIKYPFISEKKAGPIYITNFQLQKVDYNHLGTDIFDPKP | 4.78 ± 0.78 | 4.97 ± 0.21 | 5.49 ± 1.6 | 5.01 | 3.31 ± 0.29 | 2.94 ± 0.12 | 10.2 ± 1.1 | 4.59 ± 0.6 | 10.2 | – | 8.42 | –
8 | MNNDNTDYVSNESGTLSRLFKLPQHGTTVRTELIAGMTTFLTMVYIVFVNPQILGAAQMDPKVVFVTTCLIAGIGSIAMGIFANLPVALAPAMGLNAFFAFVVVGAMGISWQTGMGAIFWGAVGLFLLTLFRIRYWMISNIPLSLRIGITSGIGLFIALMGLKNTGVIVANKDTLVMIGDLSSHGVLLGILGFFIITVLSSRHFHAAVLVSIVVTSCCGLFFGDVHFSGVYSIPPDISGVIGEVDLSGALTLELAGIIFSFMLINLFDSSGTLIGVTDKAGLIDGNGKFPNMNKALYVDSVSSVAGAFIGTSSVTAYIESTSGVAVGGRTGLTAVVVGVMFLLVMFFSPLVAIVPPYATAGALIFVGVLMTSSLARVNWDDFTESVPAFITTVMMPFTFSITEGIALGFMSYCIMKVCTGRWRDLNLCVVVVAALFALKIILVD | – | – | – | – | – | 3.27 | – | – | – | – | – | 5.84

Reference: the supplement of paper PMC11246515
